Results published in US20220396822A1, “Method for Measuring Pentosidine and Measurement Kit” (Kikkoman Corporation, priority 2019, published 2022).

Key:
[1] = Heat stability and stable pH of PenOX2 (residual activity); conditions: treated at each temperature for 10 minutes; residual activity at 37° C., pH 7.5; FIG. 9
Experimental: 600 μL of an arbitrary buffer, 400 μL of a solution of 3.99 U/mL peroxidase, 1.8 mM 4-aminoantipyrine, and 2 mM TOOS dissolved in deionized water, and 150 μL of deionized water were incubated at an arbitrary temperature for 10 minutes. Then, 50 μL of the enzyme liquid preserved on ice and 400 μL of a solution of 2 mM pentosidine dissolved in a 100 mM potassium phosphate buffer (pH 8.0) incubated at an arbitrary temperature for 10 minutes were added thereto, and the mixture was stirred and reacted at an arbitrary temperature for 3 minutes. Time-dependent change in A555 during the reaction was measured in a spectrophotometer (U-3900, manufactured by Hitachi High-Tech Science Corp.). Time elapsed after the start of measurement—amount of change in A555 from 20 seconds to 60 seconds was regarded as an activity value.
The enzyme liquid treated at each temperature for 10 minutes was evaluated for residual activity by performing the activity measurement described above at a temperature of 37° C. using a 100 mM (final concentration) potassium phosphate buffer (final pH at the time of activity measurement: 7.5).

[2] = Pentosidine quantification test (DA-67/peroxidase, A658); assay type: biochemical; conditions: 37° C., pH 7.0
Experimental: The following reagents were prepared, and pentosidine was measured using Bio Majesty JCA-BM1650 (manufactured by JEOL Ltd.).
0.2 μM, 0.4 μM, 0.6 μM, 1.0 μM, 2.0 μM or 4.0 μM pentosidine solution (prepared using the same pentosidine as in Example 2)
120 mM potassium phosphate buffer (pH 7.0)
0.2 mM DA-67 (10-(carboxymethylaminocarbonyl)-3,7-bis(dimethylamino)phenothiazine, sodium salt) (manufactured by FUJIFILM Wako Pure Chemical Corp.)
25 μL of each sample was added to 50 μL of the first reagent, and the mixture was incubated at 37° C. for 5 minutes. Then, 25 μL of the second reagent was added thereto, and pentosidine oxidation reaction mediated by PenOX2 and reaction for the detection of hydrogen peroxide produced through the reaction were allowed to proceed at 37° C. for 5 minutes.
In the reaction for the detection of hydrogen peroxide, DA-67 was oxidized, with concomitant consumption of […], into methylene blue which in turn developed color while absorbance (A658) was elevated. […] Elevation in A658 was able to be confirmed immediately after addition of the second reagent containing PenOX2.
Subsequently, the amount of elevation in A658 (ΔA) caused by the oxidation of pentosidine was calculated according to the following expression.
ΔA=(Absorbance 5 minutes after addition of the second reagent)−(Absorbance immediately before addition of the second reagent×0.75)

[3] = Method for measuring enzymatic activity (pentosidine oxidase activity, A555), Examples 9 and 10; assay type: biochemical
Experimental: The amount of the enzyme that produced 1 μmol of hydrogen peroxide per minute at 37° C. was defined as 1 unit (U). The activity was calculated according to the following expression.
Each buffer was prepared as a 50 mM (final concentration) citric acid-100 mM potassium phosphate buffer (pH 4.0 to 7.5), a 100 mM (final concentration) potassium phosphate buffer (pH 6.5 to 8.0), and a 100 mM (final concentration) glycine buffer (pH 8.0 to 11.0). Enzyme reaction was performed at each pH at a temperature of 37° C. using these buffers. […] It was therefore concluded that the optimum pH of PenOX2 is pH 6.5 to 8.0 and is most preferably pH 7.5.
The activity of PenOX2 was measured at varying temperatures using a 50 mM (final concentration) potassium phosphate buffer (pH 7.5). […] It was thus concluded that the range of the optimum temperature of PenOX2 is from 37° C. to 50° C.
As mentioned above, both PenOX1 and PenOX2 had pentosidine oxidase activity. When the percent match between their amino acid sequences was examined using the BLAST program, the amino acid sequence homology therebetween was 38.2%. […] The amino acid sequence homology to PenOX1 and PenOX2 and pentosidine oxidase activity of each enzyme were as follows.

B1: PenOX2: protein having the amino acid sequence of SEQ ID NO: 4, pentosidine oxidase from a filamentous fungus of the genus Sarocladium (protein, listed as Sarocladium sp.)
chain: MFTPKAWIPLLALSREVFSNPTSASHSISFHGLLGVSSESVHNIHLTYGDAFPHGDFRVVFGDCGMTSEDELHHEVASLSTKMESAPDRLVWLVPKDVRENGCLHAFSEGVLLGRSEPVAFTEPLRKRESLSEIGDSDGLWFSGIRYLQSSNLTSVKAAEAKEKKIGIVGGGISGLMTSLLLTSVGMTNWHIIEATERVGGRIRTKYMNGTSPDDYQYQEMGPMRFPVEVKYNDTNETLPIQDHKMVFQLAEVLNEMNGNDTDLAVKFIPWTQNNPNTPANSRGYRLPDGRIPTAAQIAQNPSILPAAANASDPQDAELGKESLERLSDLTPERMRNISANIFKAHRDAIDRGLFHWSEAAYLRYQLGLDDDTVDFVAASDNYPMFPDWWHAVYFAATKWLTIDKGLDSLSRAFVPHVKDKITYGRKIEAMQWNESTSKISLSWRESPLAAAKSDEYDYAVVAVPFSKVRLWKRPAYSNLLTRAIGKLNYEQACKVALLYETRFWEHQEIPIFGGCGSVDIPGIGGVCYPSYEINSTRPGVILSSYITGTEARSVVALSEEDHVAMVQRAMVEVHGPMADEQWTGIYDRLCWEVDENAAGGWASPTVGQQELFIPAYHKTELNTIFIGEHTSITHGWIFSALESSVRGTTQLLLDLGLVDEAKQIVETWMARWITV
- heat stability (stable up to) [1]: around 30 °C
- pentosidine oxidizing activity [2]: exhibits pentosidine oxidizing activity
- temperature at which the highest activity was exhibited ([3]; 50 mM potassium phosphate buffer pH 7.5, FIG. 8): around 50 °C
- Km ([3]; 37° C., pH 7.5, Lineweaver-Burk plot, FIG. 11, read-out: Km value for pentosidine (free form)): 70 µM
- pH of highest activity ([3]; 37° C., FIG. 7): 7.5 pH
